# From patent US20040235764A1
# Biological target: fibronectin
# Assay: cell-based or functional assay
substance,measurement,value
integrin α3β1 (from UniProt Q62470 33-1053; P09055 21-798) (receptor),cell adhesion assay: attached F9 cells counted on fibronectin-coated wells after co-transfection with dsRNA integrin α3; reduction against F9 wild-type and co-transfection controls,40%
